Data: the nanobody polyreactivity screen of Harvey et al. (2022)

Experiment: yeast display, Sf9 membrane polyspecificity reagent, FACS + sequencing; frameworks hold sequencing errors
How it was run: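 Using colony PCR, genes from sorted yeast display clones were amplified, then sequenced on MiSeq at 2 × 250 and filtered by CDR length. The clones had been stained with 10% biotinylated, detergent-solubilized Sf9 membrane reagent for 1 hour at 4 °C and sorted by FACS into low and high (top ~1%) gates on anti-HA and streptavidin fluorescence. Polyreactivity labels come from the gate of origin.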

| Sequence | polyreactivity (PSR sort gate) |
| --- | --- |
| QVQLVESGGGLLQAGGSLRLSCADSGSILYTNAMGWYRQAPGKERELVAASTTSGASTIYADSVKGRFTISRENAKNTVYLQLNSLKPEDTAVYYCAAPSRYRYYLGNYWGQGTQVTVSS | high polyreactivity |
| QVQLVESGGGLVQAGGSLRLSSAASGTIFRSYSMGWSRQAPGKERELVASITWRGGRTYYADSVKGRFTISRDNAKNTVYLQMNSLKPEDTAVDFCAVLWTPAGGYYFRYDYWGQGTQVTVSS | low polyreactivity |
| QVQLVESGGGLVQAGGSLRLTCAASGRSFRRYAMGWYREAPGKERELVAAITWRGSSTYYADSVKGRFTISRDNAKNTVYLQMNSLKPEDTAVYYCAADIGYTYEYYYWGQGTQVTLSS | high polyreactivity |
| QVQLVESGGGLVQAGGSLRLSCAASGRIFQGYAMGWYRQAPGKERELLAAITVRCGTTYYADSVKGRFTISRDNAKNTVYLQMNSLKPEDTAVYYCNAAKLIHGYQSVYPGSNSRYYYWGQGTQVTVSS | low polyreactivity |
| QVQLVESGGGLVQAGGSLRLSCAASGFTFRRYAMGWYRQAPGKERELVAAITRGGSTYYADSVKGRFTISRDNAKNTVYLQMNSLKPEDTAVYYCAARGGTRYSTRSYGYWGQGTQVTVSS | high polyreactivity |
| QVQLVESGGGLVQAGGSLRLSCAASTYLRLLMLWDGIDLRLGKKGSWLTLLTLVVNSTYYADSVKGRFTISRDNAKNTVFLQMNSLKPEDTAVYYCNVDPYGTYARTHLEYWGQGTQVTVSS | low polyreactivity |
| QVQLVESGGGLVQAGGSLRLSCAASGSIFGYNAMGWYRQAPGKERELVAAINYNGGRTYYADSVKGRFTISRDNAKNTVYLQMNSLKPEDTAVYYCATQGRSLYYRYDYWGQGTQVTVSS | high polyreactivity |
| QVQLVESGGGLVQAGGSLRLSCAASGITFSYYALGWYRQAPGKERELVAVISAGGGTTYYADSVKGRFTISRDNAKNTVYLQMNSLKPEDTAVYYCAVKIVVWWGEYDYWGQGTQVTVSS | high polyreactivity |
| QFQLVESGGGLVQAGGSLRLICAASGLTFVYNDMGWYRQAHGKERELVAGITSGGSTYYADSVKGRFTISRDNAKNTVYLQMNSLKPEDTAVYYGAADGLSTDLFRPDSIVDYWGQGTQVTVSS | low polyreactivity |
| QVQLVESGGGLVQAGGSLRLSCAASGRTFEKYVMGWYRQAPGKERELVASISKRGGSTYYADSVKGRFTISRDNAKNTVYLQMNSLKPEDTAVYYCNKDSRASPYGYWGQGTQVTVSS | high polyreactivity |
| QVQLVESGGGLVQAGGSLRLSCAASGSIFDDYAMGWYRQAPGKERELVAAISDSGGSTSYADSVKGRFTISRDNAKNTVYFQMNSLKPEDTAVYYCNADRDDDYDYWGQGTQVTVSS | low polyreactivity |
| QVQLVEAGGGLVQAGGSLRLSCAASVSTLFFNAMGWYRQGTGKERELVAGITDGGNTNYADSVKGRFTISRDNAKNTVYIQMNSLKPEDTAVYYCATDGVNPFYAYDYWGQGTQVTVSS | low polyreactivity |
| QVQLEESGGGLVQAGGSLRLSCAASGSTFRLYAMGWYRQAPGKERELVATITNGGNTYYADSVKGRFTISRDNAKNTVYLQMNSLKPEDTAVYYCAKRLSRRYDYWGQGTQGTVSS | low polyreactivity |
| QVQLVESGGGLVQAGGSLRLSCAASGFTFTKNAMGWYRQAPGKEREMVAAITWRGGSTYYADSVKGRFTISRDNAKNTVYLQMNSLKPEDTAVYYCAADGGSLYDWGQGTQVTVSS | low polyreactivity |
| QVQLVESGGGLVQAGGSLRLSCAASGLIFSQNAMGWYRQAPGKERELVARITLSGTSTYYADSVKGRFTISRDNAKNTVYLQMISLKPEDTAVYYCNTRSYSYYVPYRYDYWGQGTQVTVSS | high polyreactivity |
| QVQLVESGGGLVQAGGSLRLSCADSGITFSDYAMGWYRQAPGKERELVAAISARGGSTYYADSVKGRFTISRDNAKNTVYLQMNSLKPEDTAVYYCAADKRTPYYSRAGMDYWGQGTQVTVSS | low polyreactivity |
| QVQLVESGGGLVQAGGSLRLSCAASGRIFYYYAMGWYRQAPGKERELVAAISWRGVSTYYADSVKGRFTISRDNAKNTVYLQMNSLKPEDTAVYYCAASQYRSPYPYRDYYTPDYDYWGQGTQVTVSS | high polyreactivity |
| QVQLVESGGGLVQAGGSLRLSCAASGRILAYYAMGWYRQAPGKERELVARISGSGTSTYYADSVKGRFTISRDNAKNTVYLQMNSLKPEDTGVYYCAATYYRGGRSNGPAWWHEYWGQGTQVTVSS | high polyreactivity |
| QVQLVESGGGLVQAGGSLRLSCAASGSTLDTYAMGWYRQAPGKERELVAGITWSGGSTYYADSVKGRFTISRDNAKNTVYLQMNSLKPEDTAVYYCAAYSPYGPRYDYWGQGTQVTVSS | low polyreactivity |
| QFQLVESGGGLVQAGGSLRLSCAASGLTIDPNAMGWYRQAPGKERELVATITQTDGSTYYADSVKGRFTISRDNAKNTVYLQMNSLKPEDTAVYYCVGLVSRGSDYWGQGTQVTVSS | low polyreactivity |
| QVQLVESGGGLVQAGGSLRLSCAAYGRTFRKNAMGWYRQAPVKERELVASMSKNGAGTYYADSVKGRFTISRDTAKNTVYLQMNSLKPEDTAVYYCAKLPNLPGDYWGQGTQVTVSS | low polyreactivity |
| QVQLVESGGGLVQAGGSHRLSCAASGRTFPFYAMGWYRQAPGTERELVADITSSGGSTYYADSVKGRFTISRDNAKNTVYLQMNSLKPEDSAVYYCAADPIDISYWEFDYWGQGTQVTVSS | low polyreactivity |

| Sequence | polyreactivity (PSR sort gate) |
| --- | --- |
| QVQLVESGGGLVQAGGSLRLSCAPSGSTLNVYAMGWYRQAPGKERELVAAIRWSGDTYYADSVKGRFTISRDNAKNTVYLQMNSLKPEDTAVYYCAADPGTTYWQRFDYWGQGTQVTVSS | low polyreactivity |
| QVQLVESGGGLVQAGGSLSLSCAASGRIINWYAMGWYRQATGKERELVARISSGDITSYADSVKGRFTISRDNAKNTVYLQMYSLKPEDTAVSYCAARQWFLYDYWGQGTQVTVSS | low polyreactivity |
| QVQLVESGGGLVQAGGSLRLSSAASGRIFNSYAMGWYRQAPGKERELVAIIRSSGTTYYADSVKGRFTISRDNAKNSVYVQMNSLKPEDTAVYDCAADPYYWRQFNYDYWGHGTQVTVSS | high polyreactivity |
| QVQLVESGVGLVQAGGSLRLSCAASGRIFYGYAMGWYRQAPGKEREFVARINVSGTSTFYADSVKGRFTISRDNAKNTVYLQMSSLKPEDTAVYDCAARGLPPNDYCYVHGYIMDYWGQGTQVTVSS | low polyreactivity |
| QVQLVESGGGLVQAGGSLRLSCAASGSTFGRNAMGWYRQAPGKEREFVAAISSRGGRTSYADSVKGRFTISRDNAKNTVYLQMNSLKPEDTAVYYCATLGYFSASRTDYDYWGQGTQVTVSS | low polyreactivity |
| QVQLVESGGGLVQAGGSLRLSCAASGSTFVSYAMGWYRQAPGKERELVAAIRTTSGSTYYADSVKGRFTISRDNAKNTVYLQMNSLKPEDTAVYYCAAAGRGPSFRRYDYWGQGTQVTVSS | high polyreactivity |
| QVQLVESGGGLVQAGGSLRLSCAASGRTFLNYAMGWYRQAPGKEREFVAAITWRVGTTYYADSVKGRFTISRDNAKNTVYLQMNSLKPEDTAVYYCAARSRTGRYDYWGQGTQVTVSS | high polyreactivity |
| QVQLVESGGGLVQAGGTLRLSCAASGSTFKSNAMGWYRQEPGKERELVAAINRSGAGTYYADSVKGRFTISRDNAKNTVYLQMNSLKPEDTAVYYCAAQSYSRRYDYWGQGTQVTVSS | high polyreactivity |
| QVQLVESGGGLVQAGGSLRLSCAASGSTLRYYAMGWYRQAPGKETEFVAAITASGVTTYYADSVKGRFTISRDNAKNTVYLQMNSLKPEDTAVYYCAARLYYNYRDRYNYWGQGTQVTVSS | high polyreactivity |
| QVQLEESGGGLVQAGGSLRLSCAASGSTFLQYPMGWYRQATGKQRELVAAISWRAGSTYYADSVKGRFTISRDTAKNTVYLQMNTLKPEDTAVNYCDADGNRWRYELDDYDYWGQGTQVTGSS | low polyreactivity |
| QVQLVESGGGLVQAGGSLRLSCAASGSTFGVNAMGWYRQAPGKERELVAGISSGTSTYYADSVKGRFTISRDNAKNTVYLQMNSLKPEDTAVYYCATRWSYRYGYWGQGTQVTVSS | high polyreactivity |
| QVQLVESGVGLVQAGGSLRLSCAASGRTFDVYAMGWYRQAPGKERELVAAISRGGSTYYADSVKGRFTISRDNAKNTVYLQMNSLKPEDTAVYYCNKAYSSTRGYGYWGQGTQVTVSS | high polyreactivity |
| QVQLVESGGGLVQAGGSLRLSCAASGSTFWGNAMGWYRQAPGKERELVATITDGGSTNYADSVKGRFTISRDNAKNTVYLQMNSLKPEDTAVYYCNAEEHYNTYVLHFRPYYVRHDYWGQGTQVTVSS | low polyreactivity |
| KVQLLQTGRGLVQAGGSLRISCAASGRLFWYSDLVWYRQAPGKESELVAAISQRGGSTYYADSVKGSFTISRDNAKNTVYLQMISLKPEDTAGYYCNADFWWAYYPWEYDYWGQGTLVTVSS | high polyreactivity |
| QVQLVESGGGLVQAGGSLRLSCAASGLTFTYYAMGWYRQAPGKERELVAAITYSGDSKYYADSVKGLFTISRDNAKNTVYLQMNSLKPEDTAVYYCNAEQYLYYILGNYDYWGQGTQVTVSS | low polyreactivity |
| QVQLGESGGGLVQAGGSLRLSCAASGFTFGRYTMGWYRPAPGKERELVASITSSGARTYYADSVKGRFTISRDNAKNTVYLQMNSLKPEDTAVYYCNAGKRGSTYYYWGQGTQVTVSS | high polyreactivity |
| QVQLVESGGGLVQAGGRLRLSCAASGSTFSRYAMGWYRQAPGKERELVAAISWSGGITYYADSVKGRFTISRDNAKNTVYLQMNSLKPEDTAVYYCAARSRSWSGERGYWGQGTQVTVSS | high polyreactivity |
| QVQLVESGGGLVQAGGSLRLSCAASGSTIIGYTMGWYRQAPGKERELVADISNGGSTNYADSVKGRFTISRDNAKNTVYLQLNSLKPEDTAVYYCNAEAWYYWGWPFFIATYDYWGQGTQVTVSS | low polyreactivity |
| QVQLVESGGGLVQAGGSLRLSCAASGRIFHYNAMGWYRQAPGKERELVAVITTIGGDTYYADSVKGRFTISRDNAKNTVYLQMNSLKPEDTAVYYCAARSRSWRQRYGDFDYWGQGTQVTVSS | low polyreactivity |
| HEQRVESCGGLVQARCSLRLSCAASGGTFRYNTMGWYRQAPGKERDLVADISSDGRTYYADSVKGRFTISRDNAKTSVYLQMNSLKPEDTAVDYCAVDRFTPDVYEYGYWGQGTQVTVSS | high polyreactivity |
| QVQLVESGGGLVQAGCSLRLSCAASGSILWHYAKGWYRQAPGKERELVAFISSSGSTYYADSVKGRFTISRDNAKNTVYLQMNSLKPEDTAVDYCNAYRLYSGYVPYDYWGQCTQVTVSS | high polyreactivity |
